# T1: MPDZ_10, O75970
# T1 sequence (O75970 1624-1722, limits assumed, looked up): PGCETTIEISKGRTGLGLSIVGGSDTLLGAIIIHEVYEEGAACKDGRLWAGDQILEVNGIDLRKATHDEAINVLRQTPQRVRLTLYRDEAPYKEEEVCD
# T2: MPP7, Q5T2T1
# T2 sequence (Q5T2T1 134-230, limits assumed, looked up): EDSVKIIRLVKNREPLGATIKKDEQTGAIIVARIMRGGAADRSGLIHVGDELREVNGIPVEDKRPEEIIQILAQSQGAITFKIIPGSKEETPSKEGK
# T3: ARHGAP21, Q5T5U3
# T3 sequence (Q5T5U3 45-169, limits assumed, looked up): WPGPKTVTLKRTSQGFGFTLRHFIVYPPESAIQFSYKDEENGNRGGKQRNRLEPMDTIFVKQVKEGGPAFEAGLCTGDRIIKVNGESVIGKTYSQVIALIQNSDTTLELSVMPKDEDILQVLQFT
# T4: DVL3, Q92997
# T4 sequence (Q92997 244-331, limits assumed, looked up): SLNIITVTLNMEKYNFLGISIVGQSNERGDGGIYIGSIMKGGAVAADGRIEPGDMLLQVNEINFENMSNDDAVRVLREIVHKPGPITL
# T5: APBA3_1, O96018
# T5 sequence (O96018 389-490, limits assumed, looked up): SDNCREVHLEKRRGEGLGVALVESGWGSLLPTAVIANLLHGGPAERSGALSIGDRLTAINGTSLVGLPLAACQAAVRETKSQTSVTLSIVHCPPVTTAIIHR
# T6: NHERF3_4, Q5T2W1
# T6 sequence (Q5T2W1 373-468, limits assumed, looked up): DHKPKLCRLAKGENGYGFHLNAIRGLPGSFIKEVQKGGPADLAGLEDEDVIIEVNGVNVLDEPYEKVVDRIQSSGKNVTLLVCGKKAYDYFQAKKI
# T7: CARD11, Q9BXL7
# T7 sequence (Q9BXL7 662-765, limits assumed, looked up): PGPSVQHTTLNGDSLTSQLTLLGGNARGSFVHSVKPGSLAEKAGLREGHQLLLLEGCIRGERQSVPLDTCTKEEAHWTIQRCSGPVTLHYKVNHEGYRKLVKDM
# T8: RADIL, Q96JH8
# T8 sequence (Q96JH8 971-1071, limits assumed, looked up): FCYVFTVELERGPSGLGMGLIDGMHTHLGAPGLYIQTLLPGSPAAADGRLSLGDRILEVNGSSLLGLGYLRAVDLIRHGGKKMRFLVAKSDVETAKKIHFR
# Target: MAGI2_4, Q86UL8
# Sequence (Q86UL8 772-865): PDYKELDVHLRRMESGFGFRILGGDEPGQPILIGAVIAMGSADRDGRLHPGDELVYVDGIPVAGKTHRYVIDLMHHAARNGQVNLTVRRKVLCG
# Assay: holdup assay
# Parameters: key: below the threshold = too weak to quantify, mostly under pKd 3.1 to 4
# Conditions: plain residues with an end cap or a label only (N-terminal biotin on a linker: ado-ado)
row,Binder,pKd
1,"VISERNSTTV [C3AR1, Q16581]",4.44
2,"PDGEMMEVLI [AMOTL1, Q8IY63]",below the threshold

# Target: GORASP1, Q9BQQ3
# Sequence (Q9BQQ3 1-208): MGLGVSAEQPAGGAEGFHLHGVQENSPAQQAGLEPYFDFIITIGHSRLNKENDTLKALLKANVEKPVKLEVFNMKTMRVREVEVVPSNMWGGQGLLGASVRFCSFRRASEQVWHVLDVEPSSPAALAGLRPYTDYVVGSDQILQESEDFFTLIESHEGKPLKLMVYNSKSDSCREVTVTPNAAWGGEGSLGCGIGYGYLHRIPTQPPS
# Assay: holdup assay
# Parameters: key: below the threshold = too weak to quantify, mostly under pKd 3.1 to 4
# Conditions: plain residues with an end cap or a label only (N-terminal biotin on a linker: ado-ado)
row,Binder,pKd
1,"VISERNSTTV [C3AR1, Q16581]",below the threshold
2,"PDGEMMEVLI [AMOTL1, Q8IY63]",3.76

# Target: T1, MPDZ_10, O75970
# Assay: holdup assay
# Parameters: key: below the threshold = too weak to quantify, mostly under pKd 3.1 to 4
# Conditions: plain residues with an end cap or a label only (N-terminal biotin on a linker: ado-ado)
row,Binder,pKd
1,"VISERNSTTV [C3AR1, Q16581]",below the threshold
2,"PDGEMMEVLI [AMOTL1, Q8IY63]",below the threshold

# Target: T2, MPP7, Q5T2T1
# Assay: holdup assay
# Parameters: key: below the threshold = too weak to quantify, mostly under pKd 3.1 to 4
# Conditions: plain residues with an end cap or a label only (N-terminal biotin on a linker: ado-ado)
row,Binder,pKd
1,"VISERNSTTV [C3AR1, Q16581]",below the threshold
2,"PDGEMMEVLI [AMOTL1, Q8IY63]",4.24

# Target: ARHGEF12, Q9NZN5-2
# Sequence (Q9NZN5 other isoform, or with tags, fused parts or gaps): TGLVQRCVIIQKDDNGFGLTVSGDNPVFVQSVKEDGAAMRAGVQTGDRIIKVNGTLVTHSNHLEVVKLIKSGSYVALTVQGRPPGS
# Assay: holdup assay
# Parameters: key: below the threshold = too weak to quantify, mostly under pKd 3.1 to 4
# Conditions: plain residues with an end cap or a label only (N-terminal biotin on a linker: ado-ado)
row,Binder,pKd
1,"VISERNSTTV [C3AR1, Q16581]",4.33
2,"PDGEMMEVLI [AMOTL1, Q8IY63]",below the threshold

# Target: T3, ARHGAP21, Q5T5U3
# Assay: holdup assay
# Parameters: key: below the threshold = too weak to quantify, mostly under pKd 3.1 to 4
# Conditions: plain residues with an end cap or a label only (N-terminal biotin on a linker: ado-ado)
row,Binder,pKd
1,"VISERNSTTV [C3AR1, Q16581]",3.96
2,"PDGEMMEVLI [AMOTL1, Q8IY63]",3.53

# Target: NOS1, P29475
# Sequence (P29475 9-101): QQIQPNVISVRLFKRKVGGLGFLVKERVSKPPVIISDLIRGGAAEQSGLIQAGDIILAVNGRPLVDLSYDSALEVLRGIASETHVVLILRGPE
# Assay: holdup assay
# Parameters: key: below the threshold = too weak to quantify, mostly under pKd 3.1 to 4
# Conditions: plain residues with an end cap or a label only (N-terminal biotin on a linker: ado-ado)
row,Binder,pKd
1,"VISERNSTTV [C3AR1, Q16581]",below the threshold
2,"PDGEMMEVLI [AMOTL1, Q8IY63]",4.01

# Target: Inadl_6, Q8NI35
# Sequence (Q8NI35 1058-1167): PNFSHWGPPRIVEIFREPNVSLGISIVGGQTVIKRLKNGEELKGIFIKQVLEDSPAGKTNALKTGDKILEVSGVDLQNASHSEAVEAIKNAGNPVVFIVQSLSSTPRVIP
# Assay: holdup assay
# Parameters: key: below the threshold = too weak to quantify, mostly under pKd 3.1 to 4
# Conditions: plain residues with an end cap or a label only (N-terminal biotin on a linker: ado-ado)
row,Binder,pKd
1,"VISERNSTTV [C3AR1, Q16581]",below the threshold
2,"PDGEMMEVLI [AMOTL1, Q8IY63]",below the threshold

# Target: GRIP2_5, Q9C0E4
# Sequence (Q9C0E4 544-642): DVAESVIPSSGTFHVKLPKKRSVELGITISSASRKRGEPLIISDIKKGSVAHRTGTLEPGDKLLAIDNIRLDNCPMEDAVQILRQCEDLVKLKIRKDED
# Assay: holdup assay
# Parameters: key: below the threshold = too weak to quantify, mostly under pKd 3.1 to 4
# Conditions: plain residues with an end cap or a label only (N-terminal biotin on a linker: ado-ado)
row,Binder,pKd
1,"VISERNSTTV [C3AR1, Q16581]",below the threshold
2,"PDGEMMEVLI [AMOTL1, Q8IY63]",below the threshold

# Target: DLG4_1, P78352
# Sequence (P78352 62-152): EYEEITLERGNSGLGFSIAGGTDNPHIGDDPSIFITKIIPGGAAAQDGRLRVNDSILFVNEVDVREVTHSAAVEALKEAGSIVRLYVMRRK
# Assay: holdup assay
# Parameters: key: below the threshold = too weak to quantify, mostly under pKd 3.1 to 4
# Conditions: plain residues with an end cap or a label only (N-terminal biotin on a linker: ado-ado)
row,Binder,pKd
1,"VISERNSTTV [C3AR1, Q16581]",4.58
2,"PDGEMMEVLI [AMOTL1, Q8IY63]",below the threshold

# Target: LDB3, O75112
# Sequence (O75112 1-94): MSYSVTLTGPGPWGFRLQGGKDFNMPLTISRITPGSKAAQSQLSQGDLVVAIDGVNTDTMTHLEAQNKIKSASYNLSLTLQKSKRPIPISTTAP
# Assay: holdup assay
# Parameters: key: below the threshold = too weak to quantify, mostly under pKd 3.1 to 4
# Conditions: plain residues with an end cap or a label only (N-terminal biotin on a linker: ado-ado)
row,Binder,pKd
1,"VISERNSTTV [C3AR1, Q16581]",below the threshold
2,"PDGEMMEVLI [AMOTL1, Q8IY63]",below the threshold

# Target: T4, DVL3, Q92997
# Assay: holdup assay
# Parameters: key: below the threshold = too weak to quantify, mostly under pKd 3.1 to 4
# Conditions: plain residues with an end cap or a label only (N-terminal biotin on a linker: ado-ado)
row,Binder,pKd
1,"VISERNSTTV [C3AR1, Q16581]",below the threshold
2,"PDGEMMEVLI [AMOTL1, Q8IY63]",below the threshold

# Target: T5, APBA3_1, O96018
# Assay: holdup assay
# Parameters: key: below the threshold = too weak to quantify, mostly under pKd 3.1 to 4
# Conditions: plain residues with an end cap or a label only (N-terminal biotin on a linker: ado-ado)
row,Binder,pKd
1,"VISERNSTTV [C3AR1, Q16581]",below the threshold
2,"PDGEMMEVLI [AMOTL1, Q8IY63]",below the threshold

# Target: Inadl_10, Q8NI35
# Sequence (Q8NI35 1673-1763): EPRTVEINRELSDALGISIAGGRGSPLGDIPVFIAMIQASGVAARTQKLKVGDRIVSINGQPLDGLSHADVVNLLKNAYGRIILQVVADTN
# Assay: holdup assay
# Parameters: key: below the threshold = too weak to quantify, mostly under pKd 3.1 to 4
# Conditions: plain residues with an end cap or a label only (N-terminal biotin on a linker: ado-ado)
row,Binder,pKd
1,"VISERNSTTV [C3AR1, Q16581]",below the threshold
2,"PDGEMMEVLI [AMOTL1, Q8IY63]",below the threshold

# Target: LNX1_2, Q8TBB1
# Sequence (Q8TBB1 371-470): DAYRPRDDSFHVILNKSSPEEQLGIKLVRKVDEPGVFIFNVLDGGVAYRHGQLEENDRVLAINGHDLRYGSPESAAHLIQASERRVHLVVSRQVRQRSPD
# Assay: holdup assay
# Parameters: key: below the threshold = too weak to quantify, mostly under pKd 3.1 to 4
# Conditions: plain residues with an end cap or a label only (N-terminal biotin on a linker: ado-ado)
row,Binder,pKd
1,"VISERNSTTV [C3AR1, Q16581]",3.78
2,"PDGEMMEVLI [AMOTL1, Q8IY63]",below the threshold

# Target: PTPN3, P26045
# Sequence (P26045 505-587): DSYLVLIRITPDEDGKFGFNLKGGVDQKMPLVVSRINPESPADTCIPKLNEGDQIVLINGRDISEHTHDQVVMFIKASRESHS
# Assay: holdup assay
# Parameters: key: below the threshold = too weak to quantify, mostly under pKd 3.1 to 4
# Conditions: plain residues with an end cap or a label only (N-terminal biotin on a linker: ado-ado)
row,Binder,pKd
1,"VISERNSTTV [C3AR1, Q16581]",4.01
2,"PDGEMMEVLI [AMOTL1, Q8IY63]",below the threshold

# Target: LNX1_1, Q8TBB1
# Sequence (Q8TBB1 261-371): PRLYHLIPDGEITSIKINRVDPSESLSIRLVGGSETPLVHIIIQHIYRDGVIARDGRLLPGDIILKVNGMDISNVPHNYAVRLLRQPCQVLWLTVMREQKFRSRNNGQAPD
# Assay: holdup assay
# Parameters: key: below the threshold = too weak to quantify, mostly under pKd 3.1 to 4
# Conditions: plain residues with an end cap or a label only (N-terminal biotin on a linker: ado-ado)
row,Binder,pKd
1,"VISERNSTTV [C3AR1, Q16581]",3.61
2,"PDGEMMEVLI [AMOTL1, Q8IY63]",below the threshold

# Target: FRMPD4, Q14CM0
# Sequence (Q14CM0 67-160): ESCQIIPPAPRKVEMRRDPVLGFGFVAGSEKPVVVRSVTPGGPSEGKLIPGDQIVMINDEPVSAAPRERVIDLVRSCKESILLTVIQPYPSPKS
# Assay: holdup assay
# Parameters: key: below the threshold = too weak to quantify, mostly under pKd 3.1 to 4
# Conditions: plain residues with an end cap or a label only (N-terminal biotin on a linker: ado-ado)
row,Binder,pKd
1,"VISERNSTTV [C3AR1, Q16581]",below the threshold
2,"PDGEMMEVLI [AMOTL1, Q8IY63]",below the threshold

# Target: SCRIB_3, Q14160
# Sequence (Q14160 999-1103): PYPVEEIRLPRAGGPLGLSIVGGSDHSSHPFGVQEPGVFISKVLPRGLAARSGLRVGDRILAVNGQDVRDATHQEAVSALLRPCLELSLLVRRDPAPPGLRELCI
# Assay: holdup assay
# Parameters: key: below the threshold = too weak to quantify, mostly under pKd 3.1 to 4
# Conditions: plain residues with an end cap or a label only (N-terminal biotin on a linker: ado-ado)
row,Binder,pKd
1,"VISERNSTTV [C3AR1, Q16581]",3.62
2,"PDGEMMEVLI [AMOTL1, Q8IY63]",3.74

# Target: MAGI2_3, Q86UL8
# Sequence (Q86UL8 600-682): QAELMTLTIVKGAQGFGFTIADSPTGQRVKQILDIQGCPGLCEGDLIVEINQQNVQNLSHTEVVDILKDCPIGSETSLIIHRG
# Assay: holdup assay
# Parameters: key: below the threshold = too weak to quantify, mostly under pKd 3.1 to 4
# Conditions: plain residues with an end cap or a label only (N-terminal biotin on a linker: ado-ado)
row,Binder,pKd
1,"VISERNSTTV [C3AR1, Q16581]",below the threshold
2,"PDGEMMEVLI [AMOTL1, Q8IY63]",below the threshold

# Target: T6, NHERF3_4, Q5T2W1
# Assay: holdup assay
# Parameters: key: below the threshold = too weak to quantify, mostly under pKd 3.1 to 4
# Conditions: plain residues with an end cap or a label only (N-terminal biotin on a linker: ado-ado)
row,Binder,pKd
1,"VISERNSTTV [C3AR1, Q16581]",below the threshold
2,"PDGEMMEVLI [AMOTL1, Q8IY63]",below the threshold

# Target: Inadl_9, Q8NI35
# Sequence (Q8NI35 1530-1615): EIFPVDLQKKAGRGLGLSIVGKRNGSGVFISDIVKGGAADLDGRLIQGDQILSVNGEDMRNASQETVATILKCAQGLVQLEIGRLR
# Assay: holdup assay
# Parameters: key: below the threshold = too weak to quantify, mostly under pKd 3.1 to 4
# Conditions: plain residues with an end cap or a label only (N-terminal biotin on a linker: ado-ado)
row,Binder,pKd
1,"VISERNSTTV [C3AR1, Q16581]",3.64
2,"PDGEMMEVLI [AMOTL1, Q8IY63]",3.58

# Target: PDZRN4_1, Q6ZMN7
# Sequence (Q6ZMN7 213-318): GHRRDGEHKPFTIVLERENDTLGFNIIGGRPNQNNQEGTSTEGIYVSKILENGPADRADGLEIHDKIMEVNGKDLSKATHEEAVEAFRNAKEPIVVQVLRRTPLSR
# Assay: holdup assay
# Parameters: key: below the threshold = too weak to quantify, mostly under pKd 3.1 to 4
# Conditions: plain residues with an end cap or a label only (N-terminal biotin on a linker: ado-ado)
row,Binder,pKd
1,"VISERNSTTV [C3AR1, Q16581]",3.63
2,"PDGEMMEVLI [AMOTL1, Q8IY63]",below the threshold

# Target: MAGI3_2, Q5TCQ9
# Sequence (Q5TCQ9 398-503): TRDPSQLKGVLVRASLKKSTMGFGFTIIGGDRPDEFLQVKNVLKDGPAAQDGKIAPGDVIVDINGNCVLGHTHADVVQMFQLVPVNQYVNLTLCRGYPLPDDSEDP
# Assay: holdup assay
# Parameters: key: below the threshold = too weak to quantify, mostly under pKd 3.1 to 4
# Conditions: plain residues with an end cap or a label only (N-terminal biotin on a linker: ado-ado)
row,Binder,pKd
1,"VISERNSTTV [C3AR1, Q16581]",4.83
2,"PDGEMMEVLI [AMOTL1, Q8IY63]",below the threshold

# Target: T7, CARD11, Q9BXL7
# Assay: holdup assay
# Parameters: key: below the threshold = too weak to quantify, mostly under pKd 3.1 to 4
# Conditions: plain residues with an end cap or a label only (N-terminal biotin on a linker: ado-ado)
row,Binder,pKd
1,"VISERNSTTV [C3AR1, Q16581]",below the threshold
2,"PDGEMMEVLI [AMOTL1, Q8IY63]",below the threshold

# Target: FRMPD2_3, Q68DX3
# Sequence (Q68DX3 1073-1166): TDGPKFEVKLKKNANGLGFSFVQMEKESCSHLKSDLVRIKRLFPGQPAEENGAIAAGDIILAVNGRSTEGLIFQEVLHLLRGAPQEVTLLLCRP
# Assay: holdup assay
# Parameters: key: below the threshold = too weak to quantify, mostly under pKd 3.1 to 4
# Conditions: plain residues with an end cap or a label only (N-terminal biotin on a linker: ado-ado)
row,Binder,pKd
1,"VISERNSTTV [C3AR1, Q16581]",below the threshold
2,"PDGEMMEVLI [AMOTL1, Q8IY63]",below the threshold

# Target: MAGI2_2, Q86UL8
# Sequence (Q86UL8 410-522): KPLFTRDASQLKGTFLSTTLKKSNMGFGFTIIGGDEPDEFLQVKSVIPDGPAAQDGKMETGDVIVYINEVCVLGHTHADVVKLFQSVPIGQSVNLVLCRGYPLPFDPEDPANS
# Assay: holdup assay
# Parameters: key: below the threshold = too weak to quantify, mostly under pKd 3.1 to 4
# Conditions: plain residues with an end cap or a label only (N-terminal biotin on a linker: ado-ado)
row,Binder,pKd
1,"VISERNSTTV [C3AR1, Q16581]",4.51
2,"PDGEMMEVLI [AMOTL1, Q8IY63]",below the threshold

# Target: T8, RADIL, Q96JH8
# Assay: holdup assay
# Parameters: key: below the threshold = too weak to quantify, mostly under pKd 3.1 to 4
# Conditions: plain residues with an end cap or a label only (N-terminal biotin on a linker: ado-ado)
row,Binder,pKd
1,"VISERNSTTV [C3AR1, Q16581]",4.11
2,"PDGEMMEVLI [AMOTL1, Q8IY63]",3.9

# Target: DLG2_2, Q15700
# Sequence (Q15700 189-283): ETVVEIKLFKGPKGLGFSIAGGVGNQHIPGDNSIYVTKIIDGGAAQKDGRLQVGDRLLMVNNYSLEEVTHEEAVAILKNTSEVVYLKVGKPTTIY
# Assay: holdup assay
# Parameters: key: below the threshold = too weak to quantify, mostly under pKd 3.1 to 4
# Conditions: plain residues with an end cap or a label only (N-terminal biotin on a linker: ado-ado)
row,Binder,pKd
1,"VISERNSTTV [C3AR1, Q16581]",4.49
2,"PDGEMMEVLI [AMOTL1, Q8IY63]",below the threshold

# Target: MAGI1_1, Q96QZ7
# Sequence (Q96QZ7 1-106): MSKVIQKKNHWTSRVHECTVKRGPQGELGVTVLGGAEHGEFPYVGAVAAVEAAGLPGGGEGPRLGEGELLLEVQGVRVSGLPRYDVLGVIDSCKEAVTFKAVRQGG
# Assay: holdup assay
# Parameters: key: below the threshold = too weak to quantify, mostly under pKd 3.1 to 4
# Conditions: plain residues with an end cap or a label only (N-terminal biotin on a linker: ado-ado)
row,Binder,pKd
1,"VISERNSTTV [C3AR1, Q16581]",below the threshold
2,"PDGEMMEVLI [AMOTL1, Q8IY63]",below the threshold
